Data taken from PMC5036196.

Target: yeast histone H2A-H2B dimer (Saccharomyces cerevisiae) (UniProt P04911)
Test: ITC; ITC200 at 20 °C; 0.5 mM ARB2 or mutant in the injector, 0.2 mM H2A/B or 0.25 mM H3/4 in the sample cell; 25 mM Tris-HCl pH 7.5, 200 mM NaCl; single-site fitting model

Binder	Kd	dH	stoichiometry N
ARB2-M1 (residues Gln463, His467 and Asp471 mutated to Ala) (domain or fragment) LQKAIRAQQQAYLSAEFNFVTLPLVSMDLPDNTVLCTPNISESNTIIIVVHDTSDIWAKRNVISGTIDLSSSVIIDNSLDFIKWGLDRKYGIIDVNIPLTLFEPDNYSGMITSQEVLIYLWDNYIKYFPSVAKIAFIGIGDSYSGIVHLLGHRDTRAVTKTVINFLGDKQLKPLVPLVDETLSEWYFKNSLIFSNNSHQCWKENESRKPRKKFGRVLRCDTDGLNNIIEERFEEATDFILDS	20.4 µM	-6.86 kcal/mol	0.77
ARB2-M2 (residues Tyr468 and Glu472 mutated to Ala) (domain or fragment) LQKAIRQQQQHALSDAFNFVTLPLVSMDLPDNTVLCTPNISESNTIIIVVHDTSDIWAKRNVISGTIDLSSSVIIDNSLDFIKWGLDRKYGIIDVNIPLTLFEPDNYSGMITSQEVLIYLWDNYIKYFPSVAKIAFIGIGDSYSGIVHLLGHRDTRAVTKTVINFLGDKQLKPLVPLVDETLSEWYFKNSLIFSNNSHQCWKENESRKPRKKFGRVLRCDTDGLNNIIEERFEEATDFILDS	16.9 µM	-8.9 kcal/mol	0.64
ARB2-M3 (residues Val481, Ser482, Met483 and Asp484 mutated to Ala) (domain or fragment) LQKAIRQQQQHYLSDEFNFVTLPLAAAALPDNTVLCTPNISESNTIIIVVHDTSDIWAKRNVISGTIDLSSSVIIDNSLDFIKWGLDRKYGIIDVNIPLTLFEPDNYSGMITSQEVLIYLWDNYIKYFPSVAKIAFIGIGDSYSGIVHLLGHRDTRAVTKTVINFLGDKQLKPLVPLVDETLSEWYFKNSLIFSNNSHQCWKENESRKPRKKFGRVLRCDTDGLNNIIEERFEEATDFILDS	27.7 µM	-11.6 kcal/mol	0.74
ARB2-M4 (residues His604, His608 and Arg609 mutated to Ala) (domain or fragment) LQKAIRQQQQHYLSDEFNFVTLPLVSMDLPDNTVLCTPNISESNTIIIVVHDTSDIWAKRNVISGTIDLSSSVIIDNSLDFIKWGLDRKYGIIDVNIPLTLFEPDNYSGMITSQEVLIYLWDNYIKYFPSVAKIAFIGIGDSYSGIVALLGAADTRAVTKTVINFLGDKQLKPLVPLVDETLSEWYFKNSLIFSNNSHQCWKENESRKPRKKFGRVLRCDTDGLNNIIEERFEEATDFILDS	17.4 µM	-11.5 kcal/mol	0.8
ARB2 domain of Hda1 (Hda1^457–698) (domain or fragment) LQKAIRQQQQHYLSDEFNFVTLPLVSMDLPDNTVLCTPNISESNTIIIVVHDTSDIWAKRNVISGTIDLSSSVIIDNSLDFIKWGLDRKYGIIDVNIPLTLFEPDNYSGMITSQEVLIYLWDNYIKYFPSVAKIAFIGIGDSYSGIVHLLGHRDTRAVTKTVINFLGDKQLKPLVPLVDETLSEWYFKNSLIFSNNSHQCWKENESRKPRKKFGRVLRCDTDGLNNIIEERFEEATDFILDS	5.46 µM	-12.9 kcal/mol	0.78
